The results in this text go back to FireProtDB.

Where “and” joins values, the source holds several entries; their conditions need not be identical. Equal values may be shown once.

Usually Tm stands for the temperature at which the thermal transition is half complete.

For the data set the following is noted: whole UniProt chain shown.
The mark [1] stands for this setting: Bacillus subtilis (strain 168), pH 7, Thermal, CD, Potassium phosphate 50 mM, reversible: yes.
[2] abbreviates: Bos taurus, pH 7, Thermal, DSC, Potassium phosphate 67 mM, MgCl2 1 mM.
[3] abbreviates: Bos taurus, pH 2, 35 °C, Urea, NMR, Unknown, reversible: no.
[4] abbreviates: Bos taurus, pH 2.2, 25 °C, GdnHCl, CD, Sodium cacodylate 50 mM, NaCl 50 mM.
The mark [5] stands for this setting: Bos taurus, pH 3, Thermal, DSC, Tris-HCl 10 mM.
[6] abbreviates: Bos taurus, pH 4.2, Thermal, DSC, Tris-HCl 10 mM.
Where [7] appears, read: Bos taurus, pH 5.2, Thermal, DSC, Tris-HCl 10 mM.
Where [8] appears, read: Bos taurus, pH 6.2, Thermal, DSC, citrate 10 mM.
Setting [9] is: Bos taurus, pH 6.3, 25 °C, GdnHCl, CD, Sodium acetate 100 mM, CaCl2 2 mM, transition: 3.
[10] abbreviates: Bos taurus, pH 6.3, 25 °C, GdnHCl, CD, Sodium acetate 100 mM, CaCl2 2 mM.
Setting [11] is: Bos taurus, pH 6.3, 25 °C, Thermal, CD, imidazole-HCl 40 mM.
Where [12] appears, read: Bos taurus, pH 7, 4.5 °C, GdnHCl, CD, cacodylate 50 mM, NaCl 0.1 M.
The mark [13] stands for this setting: Bos taurus, pH 7, 25 °C, GdnHCl, CD, sodium cacodylate 50 mM, NaCl 50 mM.
The mark [14] stands for this setting: Bos taurus, pH 7, Thermal, CD, C2H6AsNaO2 50 mM, NaCl 50 mM.
The mark [15] stands for this setting: Bos taurus, pH 7.5, Thermal, DSC, Tris-HCl 10 mM, CaCl2 260 micro M.
[16] abbreviates: Bos taurus, pH 8, 25 °C, GdnHCl, CD, Tris-HCl 20 mM.
Setting [17] is: Bos taurus, pH 8, 25 °C, Thermal, CD, borate 10 mM, NaCl 0.01-1.0 M.
Setting [18] is: Bos taurus, pH 8, 25 °C, Thermal, DSC, Tris-HCl 10 mM, reversible: yes.
The mark [19] stands for this setting: Bos taurus, pH 8, Thermal, DSC, Tris-HCl 5 mM.
Where [20] appears, read: Bos taurus, pH 8, Thermal, DSC, Tris-HCl 10mM, reversible: yes.
Where [21] appears, read: Bos taurus, pH 8, Thermal, DSC, borate 10 mM, NaCl 0.2 M, reversible: yes (>95%).

B1: Phosphocarrier protein HPr wild type, P08877 (protein)
chain: MAQKTFKVTADSGIHARPATVLVQTASKYDADVNLEYNGKTVNLKSIMGVMSLGIAKGAEITISASGADENDALNALEETMKSEGLGE
As to B1, the “denaturant midpoint (higher = more stable)” value (Bacillus subtilis (strain 168), pH 7, 30 °C, Urea, CD, Potassium phosphate 50 mM, reversible: yes) was found to be 3.93 M. Under setting [1], the Tm is 73.6 °C and 77.5 °C; the “unfolding enthalpy (van 't Hoff)” value was 59 kcal/mol and 63 kcal/mol.

B2: Rhodopsin wild type, P02699 (protein)
chain: MNGTEGPNFYVPFSNKTGVVRSPFEAPQYYLAEPWQFSMLAAYMFLLIMLGFPINFLTLYVTVQHKKLRTPLNYILLNLAVADLFMVFGGFTTTLYTSLHGYFVFGPTGCNLEGFFATLGGEIALWSLVVLAIERYVVVCKPMSNFRFGENHAIMGVAFTWVMALACAAPPLVGWSRYIPEGMQCSCGIDYYTPHEETNNESFVIYMFVVHFIIPLIVIFFCYGQLVFTVKEAAAQQQESATTQKAEKEVTRMVIIMVIAFLICWLPYAGVAFYIFTHQGSDFGPIFMTIPAFFAKTSAVYNPVIYIMMNKQFRNCMVTTLCCGKNPLGDDEASTTVSKTETSQVAPA
Take B2: under setting [2], the Tm was found to be 71.7 °C and the “unfolding enthalpy (calorimetric)” value is 172 kcal/mol.

B3: Alpha-lactalbumin wild type, P00711 (protein)
chain: MMSFVSLLLVGILFHATQAEQLTKCEVFRELKDLKGYGGVSLPEWVCTTFHTSGYDTQAIVQNNDSTEYGLFQINNKIWCKDDQNPHSSNICNISCDKFLDDDLTDDIMCVKKILDKVGINYWLAHKALCSEKLDQWLCEKL
On to B3, for which the denaturant m value is 0.33 kcal/mol/M under setting [3]; 0.76 kcal/mol/M under setting [4]; 1.85 kcal/mol/M under setting [9]; 2.6 kcal/mol/M under setting [10]; 2.27 kcal/mol/M under setting [12]; 1.79 kcal/mol/M and 0.64 kcal/mol/M (Bos taurus, pH 7, 25 °C, GdnHCl, CD, sodium cacodylate 50 mM, NaCl 50 mM, transition: 3). For the same protein, the denaturant m value runs as follows: under setting [13], 2.43 kcal/mol/M; under setting [16], 0.84 kcal/mol/M. In addition, the “denaturant midpoint (higher = more stable)” value worked out at 4.45 M under setting [3], 3.16 M under setting [4] and 2.46 M under setting [16]. Besides, the unfolding free energy runs as follows: under setting [3], 1.46 kcal/mol; under setting [4], 2.41 kcal/mol; under setting [9], 4.61 kcal/mol; under setting [10], 6.21 kcal/mol; (Bos taurus, pH 6.65, 25 °C, GdnHCl, CD, potassium phosphate 0.01-0.03 M, KCl 0.1 M, reversible: yes) 6.5 kcal/mol; under setting [12], 3.66 kcal/mol. Moreover, the unfolding free energy under setting [13] is 7.29 kcal/mol; the unfolding free energy under setting [16] stood at 2.07 kcal/mol; the unfolding free energy under setting [18] was 5.02 kcal/mol and 3.59 kcal/mol. Moreover, the Tm by setting is: under setting [5], 29.6 °C; under setting [6], 56.9 °C; under setting [7], 62.8 °C; under setting [8], 51.2 °C; under setting [14], 25 °C; under setting [15], 64.2 °C. For the same protein, the midpoint of thermal melting (Tm) turned out to be 28.2 °C under setting [19], 55.2 °C under setting [20] and 71.3 °C under setting [21]. For the same protein, the “heat capacity change of unfolding” value was 0.93 kcal/mol/K under setting [5]; 1.17 kcal/mol/K under setting [6]; 1.26 kcal/mol/K under setting [7]; 1.61 kcal/mol/K under setting [8]; 0.96 kcal/mol/K under setting [11]; 1.49 kcal/mol/K (Bos taurus, pH 6.8, 25 °C, Thermal, CD, phosphate 10-20 mM, KCl 0.1 M). For the same protein, the “heat capacity change of unfolding” value reads like this: under setting [14], 1.1 kcal/mol/K; under setting [17], 1.18 kcal/mol/K; under setting [18], 1.03 kcal/mol/K; under setting [19], 1.48 kcal/mol/K; under setting [21], 1.6 kcal/mol/K. The “unfolding enthalpy (calorimetric)” value by setting is: under setting [5], 36.1 kcal/mol; under setting [6], 64.5 kcal/mol; under setting [7], 71.9 kcal/mol; under setting [8], 59.1 kcal/mol; under setting [15], 72.2 kcal/mol; under setting [19], 35.2 kcal/mol. In addition, the “unfolding enthalpy (calorimetric)” value was 55 kcal/mol under setting [20] and 80 kcal/mol under setting [21]. For the same protein, the “unfolding enthalpy (van 't Hoff)” value runs as follows: under setting [8], 61.5 kcal/mol; under setting [11], 31.1 kcal/mol; under setting [14], 38 kcal/mol; under setting [17], 44.7 kcal/mol; under setting [21], 84 kcal/mol.
